Assay results from US20160024208A1 (Regeneron, published 2016).
Positions count from the first letter of the chain named. Ends that are not written are not given here. * marks the point of attachment. Biotin = O=C1N[C@H]2[C@H](CS[C@H]2CCCCC(=O)*)N1

Columns and labels:
[1] = target: T1, full-length human Nav1.7 fused at its N-terminus to GFP, expressed in HEK293 cells (human, UniProt Q15858 1-1988); assay: cell-based or functional assay
[2] = target: T2, Native Nav1.7 (3-1) peptide, human (human); assay: Biacore (second token of ELISA/Biacore summary)
T2 construct: Synthetic peptide (Celtek), unbiotinylated; also called Human Nav1.7 3-1 native; Nav1.7 3-1 native peptide
T2 peptide: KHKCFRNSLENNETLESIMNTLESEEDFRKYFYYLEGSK

[3] = target: T3, N-Term Biotin Nav1.7 (3-1) peptide, mulatta (mulatta (monkey), not fully specified; N-terminal biotin attached via a G4S linker); assay: ELISA on coated peptide, antibody 1 ug/ml, OD450 grade
T3 construct: Synthetic peptide; also called Mulatta Nav1.7 3-1 N-term biotin; monkey
T3 peptide: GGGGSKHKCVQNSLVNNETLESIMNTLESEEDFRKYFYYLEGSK
Outline: (§1)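 Binding graded from absorbance at OD450 for antibodies applied at 1 μg/ml (− below 0.2, + 0.2–1, ++ 1–2, +++ 2–4; NT not tested); antibodies were also run at 0.1 μg/mL. Biotin-peptides at 0.4 μg/mL on avidin-coated plates, other peptides at 4 μg/mL; 1 h RT binding; HRP anti-IgG/TMB detection.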

[4] = target: T4, Native Nav1.7 (3-1) peptide, rat (rat); assay: as above
T4 construct: Synthetic peptide; also called Rat Nav1.7 3-1 native
T4 peptide: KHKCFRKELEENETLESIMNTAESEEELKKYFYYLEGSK
Outline: as §1

[5] = target: T5, N-Term Biotin-Nav1.7 (3-1) peptide, human (human, not fully specified; N-terminal biotin attached via a G4S linker); assay: as above
T5 construct: ELISA peptide
T5 peptide: T3 peptide with V10F, Q11R, V15E
Outline: as §1

[6] = target: T6, C-term Biotin Nav1.7 (3-1) peptide, human (human, not fully specified; C-terminal biotin attached via a G4S linker); assay: SPR, captured biotin-peptide, antibody analyte
T6 construct: Synthetic peptide; also called Human Nav1.7 3-1 C-term biotin
T6 peptide: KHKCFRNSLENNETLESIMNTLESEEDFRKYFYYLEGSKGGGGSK

[7] = target: T1, full-length human Nav1.7 fused at its …; assay: flow cytometry; % stained hNav1.7-GFP-HEK293 minus parental HEK293
Outline: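 Percent-stained values come from FACS of healthy live cells, taking transfected-cell staining minus parental HEK293 staining. Cells were exposed on ice for 20 min to 1-13 nM antibody, then 20 min to 1.7 nM fluorescent anti-human or anti-mouse Fc secondary.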

[8] = target: T2, Native Nav1.7 (3-1) peptide, human; assay: SPR, captured antibody, peptide analyte; IC = binding data could not be fit
Method: The binding affinities of anti-Naᵥ 1.7 antibodies to Naᵥ 1.7 loop peptides were determined by Biacore. For monovalent kinetic experiments, antibodies were captured through the Fc region via a goat anti-Fc-coupled biosensor surface, and the peptides (as analyte) were injected over this captured antibody surface. For bivalent (avidity-driven) kinetic experiments, biotinylated peptides corresponding to the Naᵥ 1.7 3-1, 3-3, or paddle loop sequences were captured on a NeutrAvidin sensor surface, and anti-Naᵥ 1.7 antibodies (as analyte) were injected over this surface. Following the capture step, each analyte was individually injected at several concentrations over its respective capture surface, and changes in bound surface units (RU) were monitored. The dissociation rate is independent of the concentration of analyte used in the experiment, and the dissociation rate constant (kd) was determined from the change in antibody-bound analyte RU over time. The Biacore kinetic data were obtained using a double referencing procedure. […] The KD was calculated as the dissociation rate constant divided by the association rate constant (KD=kd/kₐ). The dissociative half-life (t_{1/2}) was calculated from the dissociation rate constant (t_{1/2}=In2/kd).

[9] = target: T7, Native Nav1.7 (3-3) peptide, rat (rat); assay: ELISA on coated peptide
T7 construct: ELISA peptide
T7 peptide: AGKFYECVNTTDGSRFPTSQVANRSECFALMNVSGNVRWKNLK
Method: (§2) Anti-Naᵥ 1.7 antibodies were tested for their ability to bind to the Naᵥ 1.7 peptides. The various peptides were coated overnight onto 96-well Nunc Immunosorp plates at a concentration of 4 μg/mL in PBS, followed by blocking for 1 hour in a suitable blocking agent. For biotinylated peptides, avidin was first coated on Nunc Immunosorp plates at 2 μg/mL in PBS overnight, followed by blocking as described, and the plate was then coated with biotinylated peptides at a concentration of 0.4 μg/mL and incubated for 1 hour at room temperature. Purified anti-Naᵥ 1.7 antibodies were diluted to a final concentration of 0.1 μg/mL and 1.0 μg/mL and added to the wells of the coated microtiter plates followed by incubation for 1 hour at room temperature. Bound antibodies were detected with horseradish peroxidase (HRP) conjugated anti-mouse or anti-human IgG (Jackson Immuno Research Lab, West Grove, Pa.) depending on the antibody species and developed by colorimetric response using tetramethylbenzidine (TMB) substrate (BD Biosciences). Absorbance was read at OD₄₅₀ on a plate reader for 0.1 second.
(§3) Values in Table 11 represent absolute binding ranges (at OD450) to plate-coated peptides for antibodies added at 1 μg/ml as follows: OD450<0.2: −; 0.2<OD450<1: +; 1<OD450<2: ++; 2<OD450<4: +++; NT: Not Tested.

[10] = target: T8, N-Term Biotin-Nav1.7 (3-3) peptide, human (same sequence of EC3-3 for mulatta) (human (same sequence of EC3-3 for …, not fully specified; N-terminal biotin attached via a G4S linker); assay: ELISA on coated peptide, antibody 1 ug/ml, OD450 grade; Human
T8 construct: ELISA peptide
T8 peptide: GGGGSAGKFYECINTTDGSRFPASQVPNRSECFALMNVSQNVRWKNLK
Method: as §2, §3

[11] = target: T8, N-Term Biotin-Nav1.7 (3-3) peptide, …; assay: ELISA on coated peptide, antibody 1 ug/ml, OD450 grade; Monkey column
Method: as §2, §3

[12] = target: T3, N-Term Biotin Nav1.7 (3-1) peptide, …; assay: ELISA on coated peptide
Method: as §2, §3

[13] = target: T2, Native Nav1.7 (3-1) peptide, human; assay: SPR, captured antibody, peptide analyte
Outline: (§4)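 Peptide analytes flowed at multiple concentrations over anti-Nav1.7 antibodies held by an anti-Fc capture surface. After reference-surface and buffer-blank subtraction, a global 1:1 Langmuir fit gave ka and kd, with KD as kd/ka and dissociative half-life as ln2/kd.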

[14] = target: T3, N-Term Biotin Nav1.7 (3-1) peptide, …; assay: SPR, captured antibody, peptide analyte
Outline: as §4

[15] = target: T9, Native Nav1.7 (Paddle) peptide, human (human); assay: SPR, captured antibody, peptide analyte
T9 construct: Synthetic peptide, unbiotinylated; also called Human Nav1.7 paddle native
T9 peptide: TEFVNLGNVSALRT
Outline: as §4

[16] = target: T10, N-term Biotin Nav1.7 (Paddle) peptide, human (human, not fully specified); assay: ELISA on coated peptide, antibody 1 ug/ml, OD450 grade
T10 construct: ELISA peptide
T10 peptide: Biotin-GGGGSTEFVNLGNVSALRT
Outline: as §1

[17] = target: T11, N-Term Biotin Nav1.7 (Paddle) peptide, mulatta (mulatta (monkey), not fully specified); assay: as above
T11 construct: ELISA peptide
T11 peptide: Biotin-GGGGSTEFVDLGNVSALRT
Outline: as §1

[18] = target: T12, N-term Biotin Nav1.7 (3-3) peptide, mouse (mouse, N-terminal biotin attached via a G4S linker); assay: ELISA on coated peptide
T12 construct: ELISA peptide
T12 peptide: T7 peptide with P17S, T18V
Method: as §2, §3

[19] = target: T7, Native Nav1.7 (3-3) peptide, rat; assay: ELISA on coated peptide, antibody 1 ug/ml, OD450 grade
Outline: as §1

B1: H4H439B (antibody, V domains shown)
VH: QVQLQQWGAGLLKPSETLSLTCAVYGGSFSGHYWSWIRQPPGKGLEWIGEINHRGSTNYNPSLKSRATISVDTSKNQFSLKLSSVTAADTAVYYCAREGSLAARLWFFDLWGRDTLVTVSS
VL: DIQMTQSPSSLSASVGDRGTITCRASQDIRTYLNWYQQKPGKAPKLLIYAASSLQSGVPSRFSGSGSGTDFTLTISSLQPEDFATYYCQQSYGTPYTFGQGTKVEIKR
B1 was tested, and the “Current blocking (Average % inhibition), IonWorks Quattro, 223 nM antibody” value (shortened to “Current blocking (Average % inhibition)”) [1] was 33.6%, the binding result [2] was “binds” and the OD450 [3] was 2 to 4 od. The OD450 [4] was 1 to 2 od and the OD450 [5] was 2 to 4 od.

B2: H1H1003B (antibody, V domains shown)
VH: QVQLVESGGGLVQPGGSLRLSCAASGFTLSSYAMSWVRQAPGKGLEWVSTISGSGIIYYTDSVKGRFTISRDSSKNTLYLQMNSLRVEDTAVYYCAKDRGAAAGAFDYWGQGTLVTVSS
VL: AIQLTQSPDSLAVSLGERATIKCKSSQSVLYSSNNKNYLAWYQQKPGQPPNLLIYWASTRESGVPDRFSGSGSGTDFTLTISSLQAEDVAVYYCQQYFSFGQGTKVDIKR
For B2, the “Current blocking (Average % inhibition)” value [1] was 32.5%, the Kd [6] was 2.64 nM and the t1/2 [6] was 27.8 min. For the same binder, the OD450 [3] was 2 to 4 od, the OD450 [4] was 2 to 4 od and the OD450 [5] was 2 to 4 od. For the same binder, the “% Binding Nav1.7” value [7] was 1.3% and the binding result [8] was “binds”.

B3: H4H471B (antibody, V domains shown)
VH: EVQLVESGGGLVKPGGSLRLSCAASGVTFSDYYMTWIRQAPGKGLEWVSYISTDGRTIYYADSVKGRFTISRDNAKNSLYLQMNNLRAEDTAVYYCARGVDSDDYEDFYSYYDMDVWGQGTTVTVSS
VL: DIQMTQSPSSLSASVGDRVTITCRASQGISNYLAWFQQKPGKAPKSLIYAASSLQGGVPSRFSGSGSGTDFTLTISSLQPEDFATYYCQQYNSYPLTFGGGTKVEIKR
In the case of B3, the “Current blocking (Average % inhibition)” value [1] is reported as 57%, the OD450 [9] is reported as less than 0.2 od and the OD450 [10] is reported as 2 to 4 od. It also gave an OD450 [11] of 2 to 4 od.

B4: H4H448B (antibody, V domains shown)
VH: EVQLVQSGGGLVQPGRSLRLSCAASGFTFDDYAMHWVRQAPGKGLEWVSGISWNSGSIGYADSVKGRFTISRDNAKNSLYLQMNSLRAEDTALYYCAKDIEYYDILTGYYSYYIMDVWGQGTTVTVSS
VL: B1 VL with Q3R, D28N, R30N, T31S, Q38L, Y49F, G93S, T94S, Y96F
Binder B4 has an OD450 [12] of less than 0.2 od, a Kd [13] of 21.9 nM and a t1/2 [13] of 1.8 min. The binding result [14] was “no binding” and the OD450 [5] was 2 to 4 od.

B5: H1M683N (antibody, V domains shown)
VH: QVQLVESGGGVVQPGRSLSLSCAASGFTFSNYGMHWVRQAPGKGLEWVAAISYDGNTKYYVDSVKGRFTISRDNSKNTLYLQMNSLRGEDMAVYYCVGARPGYDHYGMDVWGQGTTVTVSS
VL: DIQLTQSPSFLSTSVGDRVTITCWASQGISSYLAWYQQKPGKAPNLLIYTASTLQSGVPSRFSGSGSGTEFTLTISSLQPEDFATYYCQQLNSYPYTFGQGTKLEIK
notes: Loop specificity 2-1 (paddle)
B5 was tested, and the Kd [15] was 9.4 nM, the t1/2 [15] was 18 min and the binding result [6] was “no binding”. The OD450 [16] was 1 to 2 od and the OD450 [17] was 0.2 to 1 od.

B6: H4H468B (antibody, V domains shown)
VH: EVQLVQSGGGVVQPGRSLRLSCTASGFTFSVYGIHWVRQAPGKGLEWVAVIWYDGSNKYYTDSVKGRFTISRDNSKNTLYLQMNSLRAEDTALYYCAREGDLSSSSGSGGYHYVVDVWGQGTMVTVSS
VL: DIQMTQSPSSLSASVGDRVTITCRASQDIRNDLGWYQQKPGNAPKLLIYSTSSLQSGVPSRFSGSGSGTDFTLTISSLQPEDFATYYCLQDYNYPLTFGGGTKVEIKR
Binder B6 has an OD450 [18] of less than 0.2 od, an OD450 [19] of 2 to 4 od and an OD450 [10] of 1 to 2 od. For the same binder, the OD450 [11] was 1 to 2 od.
